Source: patent US20120225828A1
Bridge positions count the residues as written; N and C are the ends. Square brackets hold non-standard residues; d marks the D form. Nle = CCCC[C@H](N)C(=O)O; Dab = NCC[C@H](N)C(=O)O

B1: Ac-Nle-cyclo(Glu-His-D-Phe-Ala-Dab)-Trp-NH2 (SEQ ID NO: 51) (peptide)
peptide: Ac-[Nle]EH[dF]A[Dab]W-NH2
modifications: lactam 2-6
SMILES: CCCC[C@H](NC(C)=O)C(=O)N[C@H]1CCC(=O)NCC[C@@H](C(=O)N[C@@H](Cc2c[nH]c3ccccc23)C(N)=O)NC(=O)[C@H](C)NC(=O)[C@@H](Cc2ccccc2)NC(=O)[C@H](Cc2c[nH]cn2)NC1=O
B2: Ac-Nle-cyclo(Glu-His-D-Phe-Gly-Dab)-Trp-NH2 (SEQ ID NO: 50) (peptide)
peptide: Ac-[Nle]EH[dF]G[Dab]W-NH2
modifications: lactam 2-6
SMILES: CCCC[C@H](NC(C)=O)C(=O)N[C@H]1CCC(=O)NCC[C@@H](C(=O)N[C@@H](Cc2c[nH]c3ccccc23)C(N)=O)NC(=O)CNC(=O)[C@@H](Cc2ccccc2)NC(=O)[C@H](Cc2c[nH]cn2)NC1=O
B3: Ac-Nle-cyclo(Glu-His-D-Phe-Arg-Dab)-Lys-NH2 (SEQ ID NO: 55) (peptide)
peptide: Ac-[Nle]EH[dF]R[Dab]K-NH2
modifications: lactam 2-6
SMILES: CCCC[C@H](NC(C)=O)C(=O)N[C@H]1CCC(=O)NCC[C@@H](C(=O)N[C@@H](CCCCN)C(N)=O)NC(=O)[C@H](CCCNC(=N)N)NC(=O)[C@@H](Cc2ccccc2)NC(=O)[C@H](Cc2c[nH]cn2)NC1=O
B4: Ac-Nle-cyclo(Glu-His-D-Phe-Ala-Dab)-Trp-NH2 (peptide)
peptide: Ac-[Nle]EH[dF]A[Dab]W-NH2
modifications: lactam 2-6
SMILES: CCCC[C@H](NC(C)=O)C(=O)N[C@H]1CCC(=O)NCC[C@@H](C(=O)N[C@@H](Cc2c[nH]c3ccccc23)C(N)=O)NC(=O)[C@H](C)NC(=O)[C@@H](Cc2ccccc2)NC(=O)[C@H](Cc2c[nH]cn2)NC1=O

target: recombinant human melanocortin-4 receptor hMCR-4 (human) (UniProt P32245); experiment: competition with [I125]-NDP-α-MSH; HEK-293 hMCR-4 membrane homogenates
Sequence (P32245 whole entry): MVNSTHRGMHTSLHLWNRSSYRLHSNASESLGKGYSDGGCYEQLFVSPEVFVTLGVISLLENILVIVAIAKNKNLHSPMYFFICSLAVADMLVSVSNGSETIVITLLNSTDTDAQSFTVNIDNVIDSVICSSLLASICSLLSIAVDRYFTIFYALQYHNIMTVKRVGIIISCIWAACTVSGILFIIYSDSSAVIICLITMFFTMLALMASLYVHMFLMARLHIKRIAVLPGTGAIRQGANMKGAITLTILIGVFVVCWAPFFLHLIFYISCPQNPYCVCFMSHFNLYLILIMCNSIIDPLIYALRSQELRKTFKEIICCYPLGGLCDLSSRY

| Ki [nM] | Binder |
| --- | --- |
| 10000 | B1 |
| 10000 | B2 |
| 7380 | B3 |

target: recombinant human melanocortin-1 receptor hMCR-1a (human) (UniProt Q01726); experiment: competition with [I125]-NDP-α-MSH; HEK-293 hMCR-1a membrane homogenates
Sequence (Q01726 whole entry): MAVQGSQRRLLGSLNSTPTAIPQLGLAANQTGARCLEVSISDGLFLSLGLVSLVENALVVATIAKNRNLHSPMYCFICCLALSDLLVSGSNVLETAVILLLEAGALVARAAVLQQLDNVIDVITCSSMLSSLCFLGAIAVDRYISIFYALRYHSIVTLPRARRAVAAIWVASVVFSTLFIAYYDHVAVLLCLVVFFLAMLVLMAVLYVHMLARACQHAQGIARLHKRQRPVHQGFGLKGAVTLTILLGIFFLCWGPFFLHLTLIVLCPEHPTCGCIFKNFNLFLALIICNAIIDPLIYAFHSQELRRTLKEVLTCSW

| Ki [nM] | Binder |
| --- | --- |
| 0.08 | B4 |
| 0.08 | B1 |
| 9 | B2 |
| 2 | B3 |
